{
  "source": "paper PMC6265484",
  "about": "“Homodimerization regulates an endothelial specific signature of the SOX18 transcription factor” (Nucleic Acids Research, 2018)",
  "binders": {"B1": {"name": "full-length human SOX18 (natural protein, UniProt P35713 1-384, looked up)", "chain": "MQRSPPGYGAQDDPPARRDCAWAPGHGAAADTRGLAAGPAALAAPAAPASPPSPQRSPPRSPEPGRYGLSPAGRGERQAADESRIRRPMNAFMVWAKDERKRLAQQNPDLHNAVLSKMLGKAWKELNAAEKRPFVEEAERLRVQHLRDHPNYKYRPRRKKQARKARRLEPGLLLPGLAPPQPPPEPFPAASGSARAFRELPPLGAEFDGLGLPTPERSPLDGLEPGEAAFFPPPAAPEDCALRPFRAPYAPTELSRDPGGCYGAPLAEALRTAPPAAPLAGLYYGTLGTPGPYPGPLSPPPEAPPLESAEPLGPAADLWADVDLTEFDQYLNCSRTRPDAPGLPYHVALAKLGPRAMSCPEESSLISALSDASSAVYYSACISG"}},
  "experiment_in_all_cases": "single-molecule two-colour coincidence fluorescence spectroscopy; GFP- and Cherry-tagged proteins made in LTE, diluted to about 100 pM, confocal detection with 488 and 561 nm lasers, room temperature; coincidence ratio C = mCherry/(GFP + mCherry)",
  "key": {"human MEF2C": {"molecular_target": "human MEF2C (human, UniProt Q06413 1-473)", "sequence (Q06413 whole entry)": "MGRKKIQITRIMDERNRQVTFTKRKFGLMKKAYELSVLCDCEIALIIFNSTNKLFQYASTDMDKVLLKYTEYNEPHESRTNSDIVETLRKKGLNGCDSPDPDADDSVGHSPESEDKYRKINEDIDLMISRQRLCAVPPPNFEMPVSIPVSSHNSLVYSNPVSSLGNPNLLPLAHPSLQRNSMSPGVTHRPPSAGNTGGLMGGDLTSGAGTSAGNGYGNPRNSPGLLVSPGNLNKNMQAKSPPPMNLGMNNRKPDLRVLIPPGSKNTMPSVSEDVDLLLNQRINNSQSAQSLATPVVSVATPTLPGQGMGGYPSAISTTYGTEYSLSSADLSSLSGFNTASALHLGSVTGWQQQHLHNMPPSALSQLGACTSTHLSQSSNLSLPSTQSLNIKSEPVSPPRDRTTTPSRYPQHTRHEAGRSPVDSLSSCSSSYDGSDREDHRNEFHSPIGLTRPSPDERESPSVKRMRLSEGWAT", "details": "partners not purified"}, "human RBPJ": {"molecular_target": "human RBPJ (human, UniProt Q06330 1-500)", "sequence (Q06330 whole entry)": "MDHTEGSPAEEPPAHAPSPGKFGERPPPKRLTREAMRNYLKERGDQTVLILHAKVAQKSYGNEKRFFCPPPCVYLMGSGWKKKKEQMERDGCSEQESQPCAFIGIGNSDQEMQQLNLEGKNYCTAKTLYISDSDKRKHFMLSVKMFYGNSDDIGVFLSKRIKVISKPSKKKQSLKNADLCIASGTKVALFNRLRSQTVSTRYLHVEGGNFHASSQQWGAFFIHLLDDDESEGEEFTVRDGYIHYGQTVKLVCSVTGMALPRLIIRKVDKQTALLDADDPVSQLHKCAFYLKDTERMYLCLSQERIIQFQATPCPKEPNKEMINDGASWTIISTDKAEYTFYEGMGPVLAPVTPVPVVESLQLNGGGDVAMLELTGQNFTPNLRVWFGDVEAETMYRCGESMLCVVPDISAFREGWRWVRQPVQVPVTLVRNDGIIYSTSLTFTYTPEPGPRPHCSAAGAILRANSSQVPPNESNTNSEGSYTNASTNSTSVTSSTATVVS", "details": "partners not purified"}, "RXRA": {"molecular_target": "T1, RXRA (UniProt P19793 1-462)", "T1 sequence (looked up)": "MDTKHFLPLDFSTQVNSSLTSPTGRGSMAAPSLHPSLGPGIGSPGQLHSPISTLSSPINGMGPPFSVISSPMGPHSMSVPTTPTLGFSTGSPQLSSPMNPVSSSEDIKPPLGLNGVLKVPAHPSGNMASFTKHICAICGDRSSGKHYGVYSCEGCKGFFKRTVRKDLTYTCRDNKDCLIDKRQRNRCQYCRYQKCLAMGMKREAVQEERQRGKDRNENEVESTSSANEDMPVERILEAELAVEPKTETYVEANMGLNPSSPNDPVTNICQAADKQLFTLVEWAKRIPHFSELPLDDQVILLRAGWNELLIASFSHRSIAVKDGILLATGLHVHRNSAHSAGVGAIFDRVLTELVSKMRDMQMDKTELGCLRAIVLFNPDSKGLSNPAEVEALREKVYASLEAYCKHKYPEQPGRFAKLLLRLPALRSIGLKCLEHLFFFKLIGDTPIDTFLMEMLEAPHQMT", "details": "partners not purified"}, "[1]": {"molecular_target": "the molecule itself"}},
  "data": [
    {"binder": "B1", "values": [
      {"measurement": "stoichiometry N", "setting": "human MEF2C", "value": 2},
      {"measurement": "stoichiometry N", "setting": "human RBPJ", "value": 2},
      {"measurement": "stoichiometry N", "setting": "RXRA", "value": 1},
      {"measurement": "stoichiometry N", "setting": "[1]", "value": 2}
    ]}
  ]
}
